Results from US7067277 (H LUNDBECK A S, dated 2006).

T1: human α1A adrenergic receptor (human, UniProt P35348 1-466)
T1 sequence (looked up): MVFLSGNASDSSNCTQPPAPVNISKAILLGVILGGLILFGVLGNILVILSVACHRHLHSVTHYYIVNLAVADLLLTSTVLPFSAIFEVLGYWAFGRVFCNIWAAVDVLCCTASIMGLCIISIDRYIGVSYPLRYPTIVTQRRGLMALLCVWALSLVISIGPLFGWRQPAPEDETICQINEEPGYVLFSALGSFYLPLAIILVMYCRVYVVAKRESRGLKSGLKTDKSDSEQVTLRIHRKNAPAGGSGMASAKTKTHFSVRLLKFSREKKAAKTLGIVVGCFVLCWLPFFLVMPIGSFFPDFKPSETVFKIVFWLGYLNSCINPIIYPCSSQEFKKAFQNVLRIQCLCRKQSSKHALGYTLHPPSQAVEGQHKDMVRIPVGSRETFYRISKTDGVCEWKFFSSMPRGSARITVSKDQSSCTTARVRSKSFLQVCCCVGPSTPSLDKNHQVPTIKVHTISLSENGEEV

T2: rat GALR1 receptor (rat, UniProt Q62805 1-346)
T2 sequence (looked up): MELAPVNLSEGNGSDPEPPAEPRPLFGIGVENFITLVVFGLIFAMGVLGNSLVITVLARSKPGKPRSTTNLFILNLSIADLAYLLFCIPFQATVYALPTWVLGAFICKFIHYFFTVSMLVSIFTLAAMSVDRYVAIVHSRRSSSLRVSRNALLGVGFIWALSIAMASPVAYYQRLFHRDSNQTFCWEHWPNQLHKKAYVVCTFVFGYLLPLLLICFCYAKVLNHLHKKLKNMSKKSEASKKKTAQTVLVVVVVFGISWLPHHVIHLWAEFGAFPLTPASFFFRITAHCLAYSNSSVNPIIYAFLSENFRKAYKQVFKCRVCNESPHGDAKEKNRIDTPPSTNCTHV

T3: human 5HT1F receptor (human, UniProt P30939 1-366)
T3 sequence (looked up): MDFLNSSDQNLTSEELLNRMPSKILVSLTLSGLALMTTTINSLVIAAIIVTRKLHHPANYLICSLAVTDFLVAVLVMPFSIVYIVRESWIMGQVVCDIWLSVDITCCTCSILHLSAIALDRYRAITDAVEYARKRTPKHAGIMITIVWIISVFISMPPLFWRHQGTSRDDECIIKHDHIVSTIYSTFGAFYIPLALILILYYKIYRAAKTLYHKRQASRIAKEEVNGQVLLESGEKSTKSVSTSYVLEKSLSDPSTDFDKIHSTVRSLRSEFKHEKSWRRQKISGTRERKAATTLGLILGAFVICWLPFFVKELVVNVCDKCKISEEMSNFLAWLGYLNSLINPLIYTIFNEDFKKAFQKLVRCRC

T4: human Y5 receptor (human, UniProt Q15761 1-445)
T4 sequence (looked up): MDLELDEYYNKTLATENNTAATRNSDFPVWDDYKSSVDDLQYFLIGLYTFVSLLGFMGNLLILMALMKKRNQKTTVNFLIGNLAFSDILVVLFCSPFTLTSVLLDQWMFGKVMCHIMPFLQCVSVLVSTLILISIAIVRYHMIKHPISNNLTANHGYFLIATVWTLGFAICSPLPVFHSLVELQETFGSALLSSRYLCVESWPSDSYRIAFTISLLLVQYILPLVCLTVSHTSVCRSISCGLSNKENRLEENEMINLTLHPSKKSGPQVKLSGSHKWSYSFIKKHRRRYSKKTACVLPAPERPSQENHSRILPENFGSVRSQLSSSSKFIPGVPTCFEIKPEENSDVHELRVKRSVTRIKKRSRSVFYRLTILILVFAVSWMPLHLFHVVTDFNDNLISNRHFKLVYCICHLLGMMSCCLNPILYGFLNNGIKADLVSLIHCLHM


What was measured:
Assay in all cases: cell-based or functional assay
[1] = biological target: human dopamine D1 receptor (human, UniProt P21728 1-446)
Sequence of human dopamine D1 receptor (P21728 whole entry): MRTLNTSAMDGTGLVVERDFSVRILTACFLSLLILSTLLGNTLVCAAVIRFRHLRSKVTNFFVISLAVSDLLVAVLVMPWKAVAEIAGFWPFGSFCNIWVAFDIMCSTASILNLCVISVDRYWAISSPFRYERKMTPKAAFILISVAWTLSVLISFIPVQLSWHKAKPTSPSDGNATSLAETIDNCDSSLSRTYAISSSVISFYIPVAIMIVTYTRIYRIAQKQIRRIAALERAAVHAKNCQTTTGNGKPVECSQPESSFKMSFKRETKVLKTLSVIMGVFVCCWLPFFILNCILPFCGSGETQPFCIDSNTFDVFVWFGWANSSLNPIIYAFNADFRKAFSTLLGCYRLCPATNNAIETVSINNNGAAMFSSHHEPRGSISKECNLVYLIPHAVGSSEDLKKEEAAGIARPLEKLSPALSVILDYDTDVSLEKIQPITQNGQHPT

human 5HT1D receptor = human 5HT1D receptor (human, UniProt P28221 1-377)
Sequence of human 5HT1D receptor (P28221 whole entry): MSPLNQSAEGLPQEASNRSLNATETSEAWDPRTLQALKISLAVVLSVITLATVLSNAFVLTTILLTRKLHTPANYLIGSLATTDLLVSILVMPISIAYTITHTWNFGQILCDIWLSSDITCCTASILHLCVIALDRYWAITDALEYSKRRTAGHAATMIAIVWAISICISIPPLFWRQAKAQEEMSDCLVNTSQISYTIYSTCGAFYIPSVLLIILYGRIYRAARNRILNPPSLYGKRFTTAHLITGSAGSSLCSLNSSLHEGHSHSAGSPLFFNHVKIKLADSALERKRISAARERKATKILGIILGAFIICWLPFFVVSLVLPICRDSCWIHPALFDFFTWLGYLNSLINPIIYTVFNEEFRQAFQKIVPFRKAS

[2] = biological target: T1, human α1A adrenergic receptor
human NPFF2 receptor = human NPFF2 receptor (human, UniProt Q9Y5X5 1-522)
Sequence of human NPFF2 receptor (Q9Y5X5 whole entry): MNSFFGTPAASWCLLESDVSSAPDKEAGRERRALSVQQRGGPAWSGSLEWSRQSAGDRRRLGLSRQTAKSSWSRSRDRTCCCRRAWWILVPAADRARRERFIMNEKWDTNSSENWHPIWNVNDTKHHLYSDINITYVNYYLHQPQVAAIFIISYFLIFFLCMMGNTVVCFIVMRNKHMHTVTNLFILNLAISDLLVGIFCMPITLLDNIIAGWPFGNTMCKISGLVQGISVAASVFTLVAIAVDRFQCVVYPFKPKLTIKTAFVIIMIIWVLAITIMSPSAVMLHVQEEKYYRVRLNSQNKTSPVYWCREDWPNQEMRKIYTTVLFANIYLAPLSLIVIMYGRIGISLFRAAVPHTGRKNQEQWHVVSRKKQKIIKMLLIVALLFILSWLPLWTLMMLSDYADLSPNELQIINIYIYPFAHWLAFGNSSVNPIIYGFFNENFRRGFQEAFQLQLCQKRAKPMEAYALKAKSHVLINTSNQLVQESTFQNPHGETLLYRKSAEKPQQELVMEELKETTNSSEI

rat GALR1 receptor = biological target: T2, rat GALR1 receptor
human 5HT1F receptor = biological target: T3, human 5HT1F receptor
human Y5 receptor = biological target: T4, human Y5 receptor
rat NTR1 receptor = rat NTR1 receptor (rat, UniProt P20789 1-424)
Sequence of rat NTR1 receptor (P20789 whole entry): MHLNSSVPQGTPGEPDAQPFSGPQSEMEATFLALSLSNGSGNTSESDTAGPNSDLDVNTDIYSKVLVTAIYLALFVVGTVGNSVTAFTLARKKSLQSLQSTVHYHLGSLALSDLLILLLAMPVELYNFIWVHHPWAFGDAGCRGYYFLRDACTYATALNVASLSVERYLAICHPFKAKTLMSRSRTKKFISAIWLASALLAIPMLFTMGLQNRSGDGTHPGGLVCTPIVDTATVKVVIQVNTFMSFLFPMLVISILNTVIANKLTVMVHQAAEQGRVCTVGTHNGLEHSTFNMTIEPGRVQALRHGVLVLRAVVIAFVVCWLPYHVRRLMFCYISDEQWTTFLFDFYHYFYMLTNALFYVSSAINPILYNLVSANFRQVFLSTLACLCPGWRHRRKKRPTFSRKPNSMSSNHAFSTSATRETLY

| Binder | max Ca2+ signal, COS-7, FLIPR; 100 µM dopamine [1] [fluorescence units] | max Ca2+ signal, COS-7, FLIPR; agonist 5HT (human 5HT1D receptor) [fluorescence units] | max Ca2+ signal, COS-7, FLIPR; agonist NE [2] [fluorescence units] | max Ca2+ signal, COS-7, FLIPR; agonist NPFF (human NPFF2 receptor) [fluorescence units] | max Ca2+ signal, COS-7, FLIPR; agonist GAL (rat GALR1 receptor) [fluorescence units] | max Ca2+ signal, COS-7, FLIPR; agonist 5HT (human 5HT1F receptor) [fluorescence units] | max Ca2+ signal, COS-7, FLIPR; agonist NPY (human Y5 receptor) [fluorescence units] | max Ca2+ signal, COS-7, FLIPR; agonist NT (rat NTR1 receptor) [fluorescence units] |
| --- | --- | --- | --- | --- | --- | --- | --- | --- |
| Human Gαq/z5 (Ala→Ser substitution at position 171) (other) MTLESIMACCLSEEAKEARRINDEIERQLRRDKRDARRELKLLLLGTGESGKSTFIKQMRIIHGSGYSDEDKRGFTKLVYQNIFTAMQAMIRAMDTLKIPYKYEHNKAHAQLVREVDVEKVSAFENPYVDAIKSLWNDPGIQECYDRRREYQLSDSTKYYLNDLDRVADPSYLPTQQDVLRVRVPTTGIIEYPFDLQSVIFRMVDVGGQRSERRKWIHCFENVTSIMFLVALSEYDQVLVESDNENRMEESKALFRTIITYPWFQNSSVILFLNKKDLLEEKIMYSHLVDYFPEYDGPQRDAQAAREFILKMFVDLNPDSDKIIYSHFTCATDTENIRFVFAAVKDTILQLNLKYIGLC | 0 | 316 | 14200 | 20000 | 82 | 0 | 6410 | 11200 |
| C. elegans Gαq/z5 (other) MACCLSEEAREQKRINQEIEKQLQRDKRNARRELKLLLLGTGESGKSTFIKQMRIIHGQGYSEEDKRAHIRLVYQNVFMAIQSMIRAMDTLDIKFGNESEELQEKAAVVREVDFESVTSFEEPYVSYIKELWEDSGIQECYDRRREYQLTDSAKYYLSDLRRLAVPDYLPTEQDILRVRVPTTGIIEYPFDLEQIIFRMVDVGGQRSERRKWIHCFENVTSIMFLVALSEYDQVLVECDNENRMEESKALFRTIITYPWFTNSSVILFLNKKDLLEEKILYSHLADYFPEYDGPPRDPIAAREFILKMFVDLNPDADKIIYSHFTCATDTENIRFVFAAVKDTILQHNLKYIGLC | 4830 | 414 | 9820 | 7570 | 3090 | 243 | 5310 | 14500 |
| C. elegans Gαq/z9 (other) MACCLSEEAREQKRINQEIEKQLQRDKRNARRELKLLLLGTGESGKSTFIKQMRIIHGQGYSEEDKRAHIRLVYQNVFMAIQSMIRAMDTLDIKFGNESEELQEKAAVVREVDFESVTSFEEPYVSYIKELWEDSGIQECYDRRREYQLTDSAKYYLSDLRRLAVPDYLPTEQDILRVRVPTTGIIEYPFDLEQIIFRMVDVGGQRSERRKWIHCFENVTSIMFLVALSEYDQVLVECDNENRMEESKALFRTIITYPWFTNSSVILFLNKKDLLEEKILYSHLADYFPEYDGPPRDPIAAREFILKMFVDLNPDADKIIYSHFTCATDTENIRFVFAAVKDTILQNNLKYIGLC | – | 504 | 6600 | 4580 | 5950 | 384 | 6680 | 6110 |
